Laboratory results: publication doi:10.1101/2025.01.28.635311 (bioRxiv, 2025)

B1: C-terminal cleavage product of SET-FL (domain or fragment, human, UniProt Q01105-2 176-277, looked up)
chain: KASRKRQHEEPESFFTWFTDHSDAGADELGEVIKDDIWPNPLQYYLVPDMDDEEGEGEEDDDDDEEEEGLEDIDEEGDEDEGEEDEDDDEGEEGEEDEGEDD

Key:
[1] = target: bovine histone H1, labelled with NT-647-NHS dye (bovine) (UniProt P02253); experiment: MST
[2] = target: N-terminal cleavage product of SET (human, UniProt Q01105-2 17-175); experiment: SEC

bovine histone H1, labelled with NT-647-NHS dye (bovine), sequence (P02253 whole entry): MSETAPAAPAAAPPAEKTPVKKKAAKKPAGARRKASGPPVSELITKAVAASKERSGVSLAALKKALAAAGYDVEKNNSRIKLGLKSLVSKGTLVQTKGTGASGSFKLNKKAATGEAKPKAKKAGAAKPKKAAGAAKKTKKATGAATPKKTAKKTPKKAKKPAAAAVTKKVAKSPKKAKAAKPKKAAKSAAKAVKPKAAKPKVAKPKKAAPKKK

Molecule | Kd [1] [nM] | binding result [2]
SET-FL after cleavage by legumain (cleaved SET-FL) (from UniProt Q01105-2 17-175; Q01105-2 176-277) (complex) | 3000 | –
full-length SET (SET-FL, 2–277) (from UniProt Q01105-2 2-277) (natural protein) | 3000 | –
B1 | – | binds
KASRKRQHEEPESFFTWFTDHSDAGADELGEVIKDDIWPNPLQYYLVPDM (domain or fragment, human, UniProt Q01105-2 176-225, looked up) [C-terminal cleavage product of SETΔC] | – | binds
